Starred links: 1 amine or outer side, 2 acyl side, 3 side chain; linkers in the order of their positions; H or OH if unused. Positions of bridges follow the written chain, without caps; N, C: chain ends. Non-standard residues stand in square brackets, D forms with d. Primed or numbered codes have the meaning given here. No end group written: not given here. TBMB′ = 1,3,5-tris(bromomethyl)benzene, 1,3,5-tris(methylene)benzene core, three thioethers to Cys; 4FlPro = 4-fluoropyrrolidine-2-carboxylic acid (4-fluoroproline); Phe(3,4-Cl2) = N[C@@H](Cc1ccc(Cl)c(Cl)c1)C(=O)O; 1Nal = N[C@@H](Cc1cccc2ccccc12)C(=O)O; 2Nal = N[C@@H](Cc1ccc2ccccc2c1)C(=O)O; TBMB = c1c(C[*:1])cc(C[*:3])cc1C[*:2]; Hyp = O=C(O)[C@@H]1C[C@@H](O)CN1; hArg = N=C(N)NCCCC[C@H](N)C(=O)O; hPhe = N[C@@H](CCc1ccccc1)C(=O)O; 3Pal = N[C@@H](Cc1cccnc1)C(=O)O; 4Pal = N[C@@H](Cc1ccncc1)C(=O)O; Phg = N[C@H](C(=O)O)c1ccccc1; Tle = CC(C)(C)[C@H](N)C(=O)O; Pip = O=C(O)[C@@H]1CCCCN1; Aze = O=C(O)[C@@H]1CCN1; Aib = CC(C)(N)C(=O)O; Sar = CNCC(=O)O
B1: Bicycle Compound Number 117 (TBMB scaffold) (peptide)
peptide: [Sar][Sar]ACPWGPF[1Nal]CPV[dA]RPGC
modifications: linker 4-11-18 via TBMB
notes: also called Sar2-ACPWGPF(1Nal)CPV(D-Ala)RPGC
B2: Bicycle Compound Number 118 (TBMB scaffold) (peptide)
peptide: [Sar][Sar]ACPWGPF[1Nal]CPVNRP[dA]C
modifications: linker 4-11-18 via TBMB
notes: also called Sar2-ACPWGPF(1Nal)CPVNRP(D-Ala)C
B3: Bicycle Compound Number 124 (TBMB scaffold) (peptide)
peptide: [Sar][Sar]AC[Aib][1Nal]GPFWCPV[dA]RPGC
modifications: linker 4-11-18 via TBMB
notes: also called Sar2-AC(Aib)(1Nal)GPFWCPV(D-Ala)RPGC
B4: Bicycle Compound Number 115 (TBMB scaffold) (peptide)
peptide: [Sar][Sar]ACP[1Nal]GPFWCPV[dA]RPGC
modifications: linker 4-11-18 via TBMB
notes: also called Sar2-ACP(1Nal)GPFWCPV(D-Ala)RPGC
B5: Bicycle Compound Number 130 (TBMB scaffold) (peptide)
peptide: [Sar][Sar]ACP[1Nal]GPFWCP[Tle]N[hArg]PGC
modifications: linker 4-11-18 via TBMB
notes: also called Compound 130; Sar2-ACP(1Nal)GPFWCP(tBuGly)N(HArg)PGC

Molecular target: T1, Human EphA2 (Ecto), C-terminal polyHis (Human, UniProt P29317 24-537)
T1 construct: extracellular domain; also called EPH receptor A2; ephrin type-A receptor 2
T1 sequence (P29317 24-537): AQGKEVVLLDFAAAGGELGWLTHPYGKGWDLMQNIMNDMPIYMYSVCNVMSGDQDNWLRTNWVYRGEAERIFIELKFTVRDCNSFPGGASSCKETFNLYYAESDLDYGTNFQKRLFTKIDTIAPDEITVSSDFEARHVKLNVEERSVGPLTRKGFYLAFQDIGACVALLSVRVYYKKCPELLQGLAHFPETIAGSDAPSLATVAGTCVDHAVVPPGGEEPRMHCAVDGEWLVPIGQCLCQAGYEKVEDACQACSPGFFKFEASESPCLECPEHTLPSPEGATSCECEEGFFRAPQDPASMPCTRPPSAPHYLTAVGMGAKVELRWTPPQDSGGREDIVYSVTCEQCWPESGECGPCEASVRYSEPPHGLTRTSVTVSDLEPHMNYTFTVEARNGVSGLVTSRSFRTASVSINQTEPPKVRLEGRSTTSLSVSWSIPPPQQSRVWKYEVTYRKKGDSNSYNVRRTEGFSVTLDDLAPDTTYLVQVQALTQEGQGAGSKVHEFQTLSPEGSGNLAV
Assay: fluorescence polarisation competition; competitor fluorescent Compound 18
Procedure: (§1) Peptides without a fluorescent tag were tested in competition with a peptide with a fluorescent tag and a known Kd (Table 2). Peptides were diluted to an appropriate concentration in assay buffer as described in the direct binding assay with a maximum of 5% DMSO, then serially diluted 1 in 2. […] Measurements were conducted as for the direct binding assay, however the gain was determined prior to the first measurement. Data analysis was in Systat Sigmaplot version 12.0 where the mP values were fit to a user defined cubic equation to generate a Ki value: […]

Row | Binder | Ki [nM]
1 | [Sar][Sar]AC[Aib][1Nal]G[Aib]FWCPVNR[Aib]GC (linker 4-11-18 via TBMB) [Bicycle Compound Number 135 (TBMB scaffold)] | 43
2 | [Sar][Sar]ACP[1Nal]G[Aib]FWCP[Tle]N[hArg]PGC (linker 4-11-18 via TBMB) [Bicycle Compound Number 136 (TBMB scaffold)] | 23
3 | [Sar][Sar]ACP[1Nal]GPFWCP[Tle]N[hArg][Aib]GC (linker 4-11-18 via TBMB) [Bicycle Compound Number 138 (TBMB scaffold)] | 5.1
4 | ACPWGPFWCPVNRPGCA (linker 2-9-16 via TBMB, also called Compound 69) [Bicycle Compound Number 69 (TBMB scaffold)] | 107
5 | [Sar][Sar]ACPWG[Aib]FWCPVNRPGC (linker 4-11-18 via TBMB′, also called Compound 80) [Bicycle Compound Number 80 (TBMB scaffold)] | 120
6 | [Sar][Sar]ACPWGPAWCPVNRPGC (linker 4-11-18 via TBMB′, also called Compound 83) [Bicycle Compound Number 83 (TBMB scaffold)] | 199
7 | [Sar][Sar]ACPWGPFWCPV[dA]RPGC (linker 4-11-18 via TBMB) [Bicycle Compound Number 102 (TBMB scaffold)] | 317
8 | [Sar][Sar]ACPWGPFWCPVNRAGC (linker 4-11-18 via TBMB) [Bicycle Compound Number 104 (TBMB scaffold)] | 124
9 | [Sar][Sar]ACPWGPFWCPVNRPAC (linker 4-11-18 via TBMB) [Bicycle Compound Number 111 (TBMB scaffold)] | 108
10 | [Sar][Sar]ACPWGPFWCPVNRP[dA]C (linker 4-11-18 via TBMB) [Bicycle Compound Number 112 (TBMB scaffold)] | 89
11 | [Sar][Sar]ACPWGP[4Pal]WCPVNRPGC (linker 4-11-18 via TBMB′, also called Compound 84) [Bicycle Compound Number 84 (TBMB scaffold)] | 33.5
12 | [Sar][Sar]ACPWGP[hPhe]WCPVNRPGC (linker 4-11-18 via TBMB′, also called Compound 87) [Bicycle Compound Number 87 (TBMB scaffold)] | 162
13 | [Sar][Sar]ACPWGPF[1Nal]CPVNRPGC (linker 4-11-18 via TBMB′, also called Compound 96) [Bicycle Compound Number 96 (TBMB scaffold)] | 31.3
14 | B1 | 53
15 | B2 | 37
16 | [Sar][Sar]ACPWGPFWCP[Tle]NRPGC (linker 4-11-18 via TBMB, also called Compound 100) [Bicycle Compound Number 100 (TBMB scaffold)] | 58.3
17 | [Sar][Sar]ACPWGPFWCPVN[hArg]PGC (linker 4-11-18 via TBMB) [Bicycle Compound Number 103 (TBMB scaffold)] | 126
18 | [Sar][Sar]ACPWGPFWCPVNR[Hyp]GC (linker 4-11-18 via TBMB) [Bicycle Compound Number 107 (TBMB scaffold)] | 48.7
19 | [Sar][Sar]ACPWGPFWCPVNR[Aib]GC (linker 4-11-18 via TBMB, also called Compound 110) [Bicycle Compound Number 110 (TBMB scaffold)] | 75
20 | [Sar][Sar]AC[Aib][1Nal]GPFWCPVNRPGC (linker 4-11-18 via TBMB) [Bicycle Compound Number 113 (TBMB scaffold)] | 10
21 | B3 | 26
22 | [Sar][Sar]AC[Aib][1Nal]GPFWCPVNRP[dA]C (linker 4-11-18 via TBMB) [Bicycle Compound Number 125 (TBMB scaffold)] | 6.4
23 | B4 | 12.5
24 | [Sar][Sar]ACP[1Nal]GPFWCPVNRP[dA]C (linker 4-11-18 via TBMB) [Bicycle Compound Number 116 (TBMB scaffold)] | 2.95
25 | B5 | 0.29
26 | AHDVPCPWGPFWCPVNRPGCA (linker 6-13-20 via TBMB (inferred), also called Compound 59) [Bicycle Compound Number 59 (TBMB scaffold)] | 0.54

Molecular target: T1, Human EphA2 (Ecto), C-terminal polyHis
Assay: fluorescence polarisation competition; competitor fluorescent Compound 66
Procedure: as §1

Row | Binder | Ki [nM]
27 | [Sar][Sar]AC[Aib][1Nal]G[Aib]FWCPVNR[Aib]GC (linker 4-11-18 via TBMB) [Bicycle Compound Number 135 (TBMB scaffold)] | 30
28 | [Sar][Sar]ACP[1Nal]G[Aib]FWCP[Tle]N[hArg]PGC (linker 4-11-18 via TBMB) [Bicycle Compound Number 136 (TBMB scaffold)] | 15
29 | ACPWGPFWCPVNRPGCA (linker 2-9-16 via TBMB, also called Compound 69) [Bicycle Compound Number 69 (TBMB scaffold)] | 70.1
30 | [Sar][Sar]ACPWG[Aib]FWCPVNRPGC (linker 4-11-18 via TBMB′, also called Compound 80) [Bicycle Compound Number 80 (TBMB scaffold)] | 187
31 | [Sar][Sar]ACPWGPAWCPVNRPGC (linker 4-11-18 via TBMB′, also called Compound 83) [Bicycle Compound Number 83 (TBMB scaffold)] | 288
32 | [Sar][Sar]ACPWGPFWCPV[dA]RPGC (linker 4-11-18 via TBMB) [Bicycle Compound Number 102 (TBMB scaffold)] | 312
33 | [Sar][Sar]ACPWGPFWCPVNRAGC (linker 4-11-18 via TBMB) [Bicycle Compound Number 104 (TBMB scaffold)] | 194
34 | [Sar][Sar]ACPWGPFWCPVNRPAC (linker 4-11-18 via TBMB) [Bicycle Compound Number 111 (TBMB scaffold)] | 238
35 | [Sar][Sar]ACPWGP[4Pal]WCPVNRPGC (linker 4-11-18 via TBMB′, also called Compound 84) [Bicycle Compound Number 84 (TBMB scaffold)] | 81.5
36 | [Sar][Sar]ACPWGP[Phe(3,4-Cl2)]WCPVNRPGC (linker 4-11-18 via TBMB′, also called Compound 90) [Bicycle Compound Number 90 (TBMB scaffold)] | 361
37 | [Sar][Sar]ACPWGP[3Pal]WCPVNRPGC (linker 4-11-18 via TBMB′, also called Compound 92) [Bicycle Compound Number 92 (TBMB scaffold)] | 165
38 | [Sar][Sar]ACPWGP[Phg]WCPVNRPGC (linker 4-11-18 via TBMB′, also called Compound 93) [Bicycle Compound Number 93 (TBMB scaffold)] | 412
39 | [Sar][Sar]ACPWGP[1Nal]WCPVNRPGC (linker 4-11-18 via TBMB′, also called Compound 94) [Bicycle Compound Number 94 (TBMB scaffold)] | 196
40 | [Sar][Sar]ACPWGP[2Nal]WCPVNRPGC (linker 4-11-18 via TBMB′, also called Compound 95) [Bicycle Compound Number 95 (TBMB scaffold)] | 362
41 | [Sar][Sar]ACPWGPF[1Nal]CPVNRPGC (linker 4-11-18 via TBMB′, also called Compound 96) [Bicycle Compound Number 96 (TBMB scaffold)] | 68.1
42 | B1 | 75
43 | [Sar][Sar]ACPWGPFWC[Aze]VNRPGC (linker 4-11-18 via TBMB′, also called Compound 97) [Bicycle Compound Number 97 (TBMB scaffold)] | 286
44 | [Sar][Sar]ACPWGPFWC[Hyp]VNRPGC (linker 4-11-18 via TBMB′, also called Compound 98) [Bicycle Compound Number 98 (TBMB scaffold)] | 163
45 | [Sar][Sar]ACPWGPFWC[4FlPro]VNRPGC (linker 4-11-18 via TBMB, also called Compound 99) [Bicycle Compound Number 99 (TBMB scaffold)] | 270
46 | [Sar][Sar]ACPWGPFWCP[Tle]NRPGC (linker 4-11-18 via TBMB, also called Compound 100) [Bicycle Compound Number 100 (TBMB scaffold)] | 112
47 | [Sar][Sar]ACPWGPFWCPVN[hArg]PGC (linker 4-11-18 via TBMB) [Bicycle Compound Number 103 (TBMB scaffold)] | 169

Row | Binder | Ki [nM]
48 | [Sar][Sar]ACPWGPFWCPVNR[Aze]GC (linker 4-11-18 via TBMB) [Bicycle Compound Number 106 (TBMB scaffold)] | 155
49 | [Sar][Sar]ACPWGPFWCPVNR[Hyp]GC (linker 4-11-18 via TBMB) [Bicycle Compound Number 107 (TBMB scaffold)] | 85.8
50 | [Sar][Sar]ACPWGPFWCPVNR[Pip]GC (linker 4-11-18 via TBMB) [Bicycle Compound Number 108 (TBMB scaffold)] | 374
51 | [Sar][Sar]ACPWGPFWCPVNR[4FlPro]GC (linker 4-11-18 via TBMB) [Bicycle Compound Number 109 (TBMB scaffold)] | 184
52 | [Sar][Sar]ACPWGPFWCPVNR[Aib]GC (linker 4-11-18 via TBMB, also called Compound 110) [Bicycle Compound Number 110 (TBMB scaffold)] | 140
53 | [Sar][Sar]AC[Aib][1Nal]GPFWCPVNRPGC (linker 4-11-18 via TBMB) [Bicycle Compound Number 113 (TBMB scaffold)] | 6.6
54 | [Sar][Sar]AC[Aib][1Nal]GPFWCPVNRP[dA]C (linker 4-11-18 via TBMB) [Bicycle Compound Number 125 (TBMB scaffold)] | 0.61
55 | [Sar][Sar]AC[Aib]WGPF[1Nal]CPVNRPGC (linker 4-11-18 via TBMB) [Bicycle Compound Number 114 (TBMB scaffold)] | 43
56 | B4 | 1.64
57 | [Sar][Sar]ACP[1Nal]GPFWCPVNRP[dA]C (linker 4-11-18 via TBMB) [Bicycle Compound Number 116 (TBMB scaffold)] | 3.2
58 | [Sar][Sar]ACP[1Nal]G[Aib]FWCPVNRPGC (linker 4-11-18 via TBMB) [Bicycle Compound Number 119 (TBMB scaffold)] | 8.4
59 | ACMNDWLCQLGWTCA (linker 2-8-14 via TBMB, also called Compound 30) [Bicycle Compound Number 30 (TBMB scaffold)] | 56
60 | ACMNDWLCSLGWTCA (linker 2-8-14 via TBMB, also called Compound 24) [Bicycle Compound Number 24 (TBMB scaffold)] | 82.3
61 | ACRVSPEYCPFGPVWCA (linker 2-9-16 via TBMB, also called Compound 33) [Bicycle Compound Number 33 (TBMB scaffold)] | 78.5
62 | ACRVSPEYCPFGPSWCA (linker 2-9-16 via TBMB, also called Compound 36) [Bicycle Compound Number 36 (TBMB scaffold)] | 40.5
63 | ACRVSPEYCPFGPEWCA (linker 2-9-16 via TBMB, also called Compound 37) [Bicycle Compound Number 37 (TBMB scaffold)] | 61.2
64 | ACRVSPEYCPFGPYWCA (linker 2-9-16 via TBMB, also called Compound 38) [Bicycle Compound Number 38 (TBMB scaffold)] | 26.5
65 | ACRVSPEYCPFGPVWCAGAAA (linker 2-9-16 via TBMB, also called Compound 34) [Bicycle Compound Number 34 (TBMB scaffold)] | 77.4
66 | ACPWGPAWCPVRDTNCA (linker 2-9-16 via TBMB, also called Compound 42) [Bicycle Compound Number 42 (TBMB scaffold)] | 316
67 | ARDDPCPWGPFWCPVNRPGCA (linker 6-13-20 via TBMB (inferred), also called Compound 62) [Bicycle Compound Number 62 (TBMB scaffold)] | 28

— US11814447B2, “Peptide ligands for binding to EphA2” (BICYCLERD LIMITED, priority 2018, dated 2023)
